# Results: the supplement of paper PMC9732359
# ± gives the uncertainty stated by the source.
# Test: protein stability index of a GFP-peptide fusion (yeast GPS) (PSI 1-4); higher = more stable; sorted into four equal gates, so the index is relative within each strain
# In short: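 Yeast carrying a pooled library were grown to mid-log phase in leucine-free medium. Each library plasmid expresses Cherry and has a tiled 17-residue yeast protein peptide fused downstream of GFP. Cells were sorted into four equal gates by GFP/Cherry ratio, and plasmids from each gate were PCR-amplified, Illumina-sequenced and assigned to strains by barcode. Summing, across gates, the read frequency times the gate number gave each peptide's protein stability index.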
sequence,measurement,setting,value
EDEEEFSIFNYFKMFPA [RPC34],protein stability index,doa10∆,3.27 ± 0.19
same,protein stability index,pdr5∆,2.2 ± 0.1
same,protein stability index,ubr1∆,2.46 ± 0.2
EDLHEKNDSAEVRQETQ [NUT1],protein stability index,doa10∆,3.48 ± 0.1
same,protein stability index,pdr5∆,3.28 ± 0.2
same,protein stability index,san1∆,3.13 ± 0.083
same,protein stability index,ubr1∆,3.53 ± 0.075
EDLKNFIFQIIEITNSN [SRB8],protein stability index,doa10∆,1.96 ± 0.075
same,protein stability index,pdr5∆,2.1 ± 0.056
same,protein stability index,san1∆,2.23 ± 0.086
same,protein stability index,ubr1∆,1.79 ± 0.05
EDNKYAIAGNSTTNSDV [RGR1],protein stability index,doa10∆,2.89 ± 0.13
same,protein stability index,pdr5∆,2.92 ± 0.12
same,protein stability index,san1∆,2.99 ± 0.06
same,protein stability index,ubr1∆,2.93 ± 0.08
EDQKVVDKALIAEIKKT [RPL6A],protein stability index,doa10∆,3.37 ± 0.13
same,protein stability index,pdr5∆,3.48 ± 0.084
same,protein stability index,san1∆,3.19 ± 0.11
same,protein stability index,ubr1∆,3.61 ± 0.072
EDRNESVNIAFAISMGY [ECM29],protein stability index,doa10∆,3.02 ± 0.12
same,protein stability index,pdr5∆,2.89 ± 0.074
same,protein stability index,san1∆,2.88 ± 0.055
same,protein stability index,ubr1∆,2.82 ± 0.07
EDSMIMNQSSIDRGLFR [RPB2],protein stability index,doa10∆,2.55 ± 0.08
same,protein stability index,pdr5∆,2.61 ± 0.093
same,protein stability index,san1∆,2.62 ± 0.098
same,protein stability index,ubr1∆,2.91 ± 0.065
EEAYDNPHDTLNRIKKY [PRP8],protein stability index,doa10∆,3.42 ± 0.13
same,protein stability index,pdr5∆,3.2 ± 0.093
same,protein stability index,san1∆,2.27 ± 0.17
same,protein stability index,ubr1∆,3.4 ± 0.085
EEEDSILSLEQSSRVVS [YCS4],protein stability index,doa10∆,3.11 ± 0.12
same,protein stability index,pdr5∆,3.24 ± 0.08
same,protein stability index,san1∆,3.19 ± 0.062
same,protein stability index,ubr1∆,3.06 ± 0.086
EEEKSVDASPNDVTRRT [CSL4],protein stability index,doa10∆,3.25 ± 0.08
same,protein stability index,pdr5∆,3.33 ± 0.085
same,protein stability index,san1∆,3.27 ± 0.05
same,protein stability index,ubr1∆,3.44 ± 0.065
EEEQDTGESEESSSEDD [IRR1],protein stability index,doa10∆,3.23 ± 0.2
same,protein stability index,pdr5∆,3.44 ± 0.23
same,protein stability index,san1∆,3.35 ± 0.11
same,protein stability index,ubr1∆,3.43 ± 0.06
EEHHEEEPSRVDPEQEA [RPT4],protein stability index,doa10∆,3.09 ± 0.082
same,protein stability index,pdr5∆,3.28 ± 0.094
same,protein stability index,san1∆,3.14 ± 0.052
same,protein stability index,ubr1∆,3.26 ± 0.064
EEKVLSTRLKKACKTAD [SRP68],protein stability index,doa10∆,3.18 ± 0.087
same,protein stability index,pdr5∆,3.22 ± 0.077
same,protein stability index,san1∆,3.56 ± 0.14
same,protein stability index,ubr1∆,3.21 ± 0.075
EELLDNCIETFVAEKTT [SRB6],protein stability index,doa10∆,2.43 ± 0.16
EELVSLAVFLFDIYNRD [YJL039C/NUP192],protein stability index,doa10∆,2.03 ± 0.099
same,protein stability index,pdr5∆,1.24 ± 0.059
same,protein stability index,san1∆,1.41 ± 0.2
same,protein stability index,ubr1∆,1.39 ± 0.071
EEREGTDQSTEEEKSVD [CSL4],protein stability index,doa10∆,3.16 ± 0.16
EESIRESLQKRELLKSQ [SIR3],protein stability index,doa10∆,3.13 ± 0.063
same,protein stability index,pdr5∆,3.32 ± 0.068
same,protein stability index,san1∆,3 ± 0.056
same,protein stability index,ubr1∆,3.12 ± 0.059
EESISKFPDMGSLWVEF [RPB5],protein stability index,doa10∆,2.53 ± 0.073
same,protein stability index,pdr5∆,2.98 ± 0.1
same,protein stability index,san1∆,2.77 ± 0.1
same,protein stability index,ubr1∆,2.71 ± 0.1
EETPSKTNKISILKRHS [NUT1],protein stability index,ubr1∆,3.1 ± 0.17
EFDSTDTSLCINGEPSI [RRI1],protein stability index,doa10∆,3.16 ± 0.077
same,protein stability index,pdr5∆,3.15 ± 0.088
same,protein stability index,san1∆,3.08 ± 0.054
same,protein stability index,ubr1∆,3.24 ± 0.046
EFESELKNVEETQEIKE [ESC2],protein stability index,doa10∆,3.54 ± 0.25
same,protein stability index,pdr5∆,3.46 ± 0.2
same,protein stability index,san1∆,3.25 ± 0.18
same,protein stability index,ubr1∆,3.29 ± 0.15
EFGADWYKVAKNVGNKS [SWI3],protein stability index,doa10∆,3.35 ± 0.1
same,protein stability index,pdr5∆,3.34 ± 0.083
same,protein stability index,san1∆,3.35 ± 0.048
same,protein stability index,ubr1∆,3.3 ± 0.051
EFGTYGKYVIAGHVSGV [RPN14],protein stability index,doa10∆,1.57 ± 0.14
same,protein stability index,pdr5∆,1.57 ± 0.22
same,protein stability index,san1∆,1.25 ± 0.3
EFLFESLKNDLPQFRSS [ECM29],protein stability index,doa10∆,2.93 ± 0.087
same,protein stability index,pdr5∆,3.1 ± 0.092
same,protein stability index,san1∆,3.28 ± 0.082
same,protein stability index,ubr1∆,3 ± 0.11
EFRSAAGQLALDLANSG [YDL116W/NUP84],protein stability index,doa10∆,2.79 ± 0.14
same,protein stability index,san1∆,2.82 ± 0.14
same,protein stability index,ubr1∆,3 ± 0.12
EGAEPGPPYTTDEHLIF [ISW2],protein stability index,doa10∆,2.91 ± 0.043
same,protein stability index,pdr5∆,2.99 ± 0.047
same,protein stability index,san1∆,2.42 ± 0.043
same,protein stability index,ubr1∆,2.68 ± 0.037
EGEKCHPQDFGNPGRIR [SEC65],protein stability index,doa10∆,3.03 ± 0.076
same,protein stability index,pdr5∆,2.76 ± 0.066
same,protein stability index,san1∆,2.81 ± 0.057
same,protein stability index,ubr1∆,3.08 ± 0.047
EGIIKPISKHSKQAIYT [RPS25A],protein stability index,doa10∆,1.65 ± 0.065
same,protein stability index,pdr5∆,2.03 ± 0.057
same,protein stability index,san1∆,1.47 ± 0.095
same,protein stability index,ubr1∆,1.72 ± 0.056
EGKVTKLRRECSNPTCG [RPS31],protein stability index,doa10∆,3.31 ± 0.11
same,protein stability index,pdr5∆,3.16 ± 0.089
same,protein stability index,san1∆,3.18 ± 0.078
same,protein stability index,ubr1∆,3.1 ± 0.083
EGLDELPKIIQLQGPQW [SOH1],protein stability index,doa10∆,3.16 ± 0.068
same,protein stability index,pdr5∆,3.35 ± 0.057
same,protein stability index,san1∆,3.18 ± 0.043
same,protein stability index,ubr1∆,3.15 ± 0.056
EGLSAQIAFDLVSSASQ [RPN2],protein stability index,doa10∆,2.6 ± 0.068
same,protein stability index,pdr5∆,3.05 ± 0.075
same,protein stability index,san1∆,2.67 ± 0.1
same,protein stability index,ubr1∆,2.62 ± 0.039
EGPKKCIQVNCLNCEKS [SNM1],protein stability index,doa10∆,2.62 ± 0.079
same,protein stability index,pdr5∆,2.04 ± 0.058
same,protein stability index,san1∆,2.8 ± 0.073
same,protein stability index,ubr1∆,2.22 ± 0.049
EGQLKPGDGSSYINVTF [RPC25],protein stability index,doa10∆,3.44 ± 0.15
same,protein stability index,pdr5∆,3.12 ± 0.15
same,protein stability index,san1∆,2.77 ± 0.19
same,protein stability index,ubr1∆,3.02 ± 0.11
EGTPINNVYFAAGALFV [RPN14],protein stability index,doa10∆,2.2 ± 0.091
same,protein stability index,pdr5∆,2.63 ± 0.13
same,protein stability index,san1∆,2.72 ± 0.12
same,protein stability index,ubr1∆,2.45 ± 0.11
EGWFYKRAASVARHIYM [RPS19A],protein stability index,doa10∆,1.97 ± 0.16
same,protein stability index,pdr5∆,2.51 ± 0.22
same,protein stability index,san1∆,1.99 ± 0.14
same,protein stability index,ubr1∆,2.33 ± 0.17
EGYGLRDVMCTDGVIGS [RPO31],protein stability index,doa10∆,2.35 ± 0.11
same,protein stability index,pdr5∆,3.29 ± 0.14
same,protein stability index,san1∆,2.58 ± 0.14
same,protein stability index,ubr1∆,2.84 ± 0.06
EHFLKLNIDFGSDKQMF [YML103C/NUP188],protein stability index,doa10∆,2.61 ± 0.075
same,protein stability index,pdr5∆,2.59 ± 0.07
same,protein stability index,san1∆,2.26 ± 0.1
same,protein stability index,ubr1∆,3.16 ± 0.061
EHLDCMNFISKEEFIMM [PCI8],protein stability index,ubr1∆,3.17 ± 0.16
EIDHQEYSPEILQIREE [RRP6],protein stability index,doa10∆,3.19 ± 0.067
same,protein stability index,pdr5∆,3.06 ± 0.069
same,protein stability index,san1∆,3.21 ± 0.094
same,protein stability index,ubr1∆,3.18 ± 0.048
EIENLDKELRKTKFQYK [YIL149C/MLP2],protein stability index,doa10∆,2.73 ± 0.081
same,protein stability index,pdr5∆,3.02 ± 0.086
same,protein stability index,san1∆,3.07 ± 0.067
same,protein stability index,ubr1∆,2.92 ± 0.074
EIEQNTELLDEFIAAVN [RPN10],protein stability index,doa10∆,3.36 ± 0.082
same,protein stability index,pdr5∆,3.32 ± 0.11
same,protein stability index,san1∆,2.79 ± 0.099
same,protein stability index,ubr1∆,3.16 ± 0.082
EIESIDKLPQFVDENTF [RPN1],protein stability index,doa10∆,3.08 ± 0.13
same,protein stability index,pdr5∆,3.4 ± 0.22
same,protein stability index,san1∆,3.09 ± 0.085
same,protein stability index,ubr1∆,3.32 ± 0.1
EIFHLLQPLEEGLIIDT [SIN4],protein stability index,doa10∆,1.99 ± 0.2
same,protein stability index,pdr5∆,2.13 ± 0.11
same,protein stability index,san1∆,2.21 ± 0.22
same,protein stability index,ubr1∆,1.97 ± 0.093
EIIADWIWDMNVHGSLE [BRR2],protein stability index,doa10∆,1.89 ± 0.1
same,protein stability index,pdr5∆,2.43 ± 0.095
same,protein stability index,san1∆,2.88 ± 0.085
same,protein stability index,ubr1∆,2.18 ± 0.054
EIILKLCRNPLTSGLLY [YJL039C/NUP192],protein stability index,doa10∆,2.21 ± 0.069
same,protein stability index,pdr5∆,1.84 ± 0.07
same,protein stability index,san1∆,1.22 ± 0.16
same,protein stability index,ubr1∆,1.17 ± 0.046
EIKKMIITNINAIFLSS [YCG1],protein stability index,doa10∆,2.49 ± 0.11
same,protein stability index,pdr5∆,1.94 ± 0.088
same,protein stability index,san1∆,1.8 ± 0.081
same,protein stability index,ubr1∆,1.81 ± 0.12
EIKLLEISCKQWEISNM [CSI1],protein stability index,pdr5∆,3.44 ± 0.27
same,protein stability index,ubr1∆,3.55 ± 0.23
EIKNDFIMVKGCIPGNR [RPL3],protein stability index,doa10∆,1.1 ± 0.14
same,protein stability index,pdr5∆,1.66 ± 0.08
same,protein stability index,san1∆,1.48 ± 0.16
same,protein stability index,ubr1∆,1.45 ± 0.11
EILNECHDELKALPMLE [MED4],protein stability index,doa10∆,2.52 ± 0.11
same,protein stability index,pdr5∆,2.95 ± 0.16
same,protein stability index,san1∆,2.59 ± 0.083
same,protein stability index,ubr1∆,3.09 ± 0.088
EILRIHSRKMNLTRGIN [RPT6],protein stability index,doa10∆,2.85 ± 0.06
same,protein stability index,pdr5∆,2.99 ± 0.071
same,protein stability index,san1∆,2.29 ± 0.075
same,protein stability index,ubr1∆,2.52 ± 0.06
EILVEESGLRPVSLLNS [PCI8],protein stability index,doa10∆,2.63 ± 0.1
same,protein stability index,pdr5∆,3.21 ± 0.1
same,protein stability index,san1∆,3.16 ± 0.063
same,protein stability index,ubr1∆,2.54 ± 0.087
